Results: patent US20260265409A1, “ANTIBODY FUSION PROTEIN TARGETING FAP AND TGFbeta, AND USE THEREOF” (NANJING LEADS BIOLABS CO., LTD., priority 2022, published 2026)

Tests used:
[1] = biological target: T1, human FAP protein expressed on 293T cells (Homo sapiens, UniProt Q12884); assay: Cell binding assay by flow cytometry, 293T-human FAP cells
T1 construct: expressed in transfected cells; host or cells: 293T cells, PIRES-puro3 vector, puromycin selection
T1 sequence (Q12884 1-760): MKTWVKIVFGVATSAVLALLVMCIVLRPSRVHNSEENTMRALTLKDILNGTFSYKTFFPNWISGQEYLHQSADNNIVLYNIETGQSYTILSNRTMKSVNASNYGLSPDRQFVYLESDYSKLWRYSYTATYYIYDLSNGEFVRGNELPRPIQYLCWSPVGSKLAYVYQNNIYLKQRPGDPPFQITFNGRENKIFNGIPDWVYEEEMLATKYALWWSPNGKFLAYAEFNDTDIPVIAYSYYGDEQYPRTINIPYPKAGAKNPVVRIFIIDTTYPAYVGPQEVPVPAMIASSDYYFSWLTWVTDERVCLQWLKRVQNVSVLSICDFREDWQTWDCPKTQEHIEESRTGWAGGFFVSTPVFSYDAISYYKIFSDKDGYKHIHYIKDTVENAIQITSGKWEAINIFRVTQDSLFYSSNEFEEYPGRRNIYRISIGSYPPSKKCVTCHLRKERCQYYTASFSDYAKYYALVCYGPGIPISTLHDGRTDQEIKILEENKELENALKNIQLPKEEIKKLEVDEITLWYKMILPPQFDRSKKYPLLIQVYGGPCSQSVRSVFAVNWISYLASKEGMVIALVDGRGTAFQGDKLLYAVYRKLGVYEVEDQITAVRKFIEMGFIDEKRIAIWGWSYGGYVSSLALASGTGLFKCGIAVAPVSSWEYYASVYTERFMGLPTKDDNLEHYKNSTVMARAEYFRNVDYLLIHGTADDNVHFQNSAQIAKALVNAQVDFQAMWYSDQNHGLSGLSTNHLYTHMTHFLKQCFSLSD
Method: (§1) Whether the humanized antibody of the present disclosure can bind to human FAP protein stably expressed on the surface of 293T cells was determined by a cell binding assay. Firstly, the sequences encoding human FAP protein (NM_004460.2, SEQ ID NO: 31) and cynomolgus FAP (XM_005573320.2, SEQ ID NO: 32) were cloned into expression vector PIRES-puro3 (Clontech, Cat #631619) […]. The vectors were used to transfect 293T cells. […]
(§2) The human FAP antibodies (huF19-LG and sibrotuzumab) were 4-fold serially diluted from a starting concentration of 200 nM to a total of 8 concentrations and added to the cells for co-incubation at 4° C. for 30 min. […] The cells were washed twice with PBS and then resuspended, and finally, fluorescence signals were detected using the […] (BD Bioscience) flow cytometer.
Whether the mutant antibody in the present disclosure can bind to human or cynomolgus FAP protein stably expressed on the surface of 293T cells was determined by a cell binding assay. […] The cells were washed twice with PBS and then resuspended, and finally, fluorescence signals were detected using the […] (BD Bioscience) flow cytometer. […]

[2] = tested on: cynomolgus FAP protein expressed on 293T cells; assay: Cell binding assay by flow cytometry, 293T-cynomolgus FAP cells
Method: as §1, §2
Whether the mutant antibody in the present disclosure can bind to human or cynomolgus FAP protein stably expressed on the surface of 293T cells was determined by a cell binding assay. […] The cells were washed twice with PBS and then resuspended, and finally, fluorescence signals were detected using the […] (BD Bioscience) flow cytometer.

[3] = Stability at 40° C., purity by SEC; format: physicochemical; details: for Purity by SEC, %: mutant antibody storage stability
Method: The purified antibodies were concentrated, and sterile filtration was performed. The purity of the antibodies was determined by size exclusion chromatography (SEC). Specifically, the samples were loaded at 20 μg onto a TSK G3000SWXL column using 100 mM sodium phosphate+100 mM Na2SO4 (pH 7.0) as a running buffer for 30 min. The collected effluent was measured using the Agilent 1220 HPLC system and the data were analyzed using OpenLAB software.
The huF19-LG antibody was tested for stability at 40° C. ELISA (see Example 1.2) and SEC (see Example 1.1) were conducted at 0 weeks (OW), 2 weeks (2W), or 4 weeks (4W) with the results shown as follows:
The activity and purity of the molecule were determined by SEC after storage. See Example 1.5 for the specific procedures.

murine FAP = biological target: T2, murine FAP (Mus musculus, UniProt P97321); assay: Binding to murine FAP
T2 sequence (P97321 1-761): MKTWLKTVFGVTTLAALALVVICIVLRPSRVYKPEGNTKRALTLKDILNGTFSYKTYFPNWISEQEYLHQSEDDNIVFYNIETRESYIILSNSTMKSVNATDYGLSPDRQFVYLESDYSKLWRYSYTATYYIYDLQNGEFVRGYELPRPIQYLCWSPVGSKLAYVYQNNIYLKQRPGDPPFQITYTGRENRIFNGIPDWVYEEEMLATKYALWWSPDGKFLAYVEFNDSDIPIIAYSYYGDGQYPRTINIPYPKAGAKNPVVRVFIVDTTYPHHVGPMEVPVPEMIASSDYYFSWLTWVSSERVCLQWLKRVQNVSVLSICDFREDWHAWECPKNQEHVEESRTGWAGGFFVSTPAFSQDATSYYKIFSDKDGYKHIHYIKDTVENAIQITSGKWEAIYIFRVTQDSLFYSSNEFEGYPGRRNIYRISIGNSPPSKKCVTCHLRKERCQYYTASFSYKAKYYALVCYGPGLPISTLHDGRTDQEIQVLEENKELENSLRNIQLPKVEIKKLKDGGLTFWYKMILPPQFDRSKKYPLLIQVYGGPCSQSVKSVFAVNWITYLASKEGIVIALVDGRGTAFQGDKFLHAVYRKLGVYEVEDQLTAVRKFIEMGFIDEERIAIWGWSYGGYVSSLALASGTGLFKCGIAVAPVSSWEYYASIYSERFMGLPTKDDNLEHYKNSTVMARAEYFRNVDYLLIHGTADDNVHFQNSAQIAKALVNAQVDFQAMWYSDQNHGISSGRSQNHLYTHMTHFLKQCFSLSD

cynomolgus FAP protein expressed on 293T cells, sequence (as listed by the source): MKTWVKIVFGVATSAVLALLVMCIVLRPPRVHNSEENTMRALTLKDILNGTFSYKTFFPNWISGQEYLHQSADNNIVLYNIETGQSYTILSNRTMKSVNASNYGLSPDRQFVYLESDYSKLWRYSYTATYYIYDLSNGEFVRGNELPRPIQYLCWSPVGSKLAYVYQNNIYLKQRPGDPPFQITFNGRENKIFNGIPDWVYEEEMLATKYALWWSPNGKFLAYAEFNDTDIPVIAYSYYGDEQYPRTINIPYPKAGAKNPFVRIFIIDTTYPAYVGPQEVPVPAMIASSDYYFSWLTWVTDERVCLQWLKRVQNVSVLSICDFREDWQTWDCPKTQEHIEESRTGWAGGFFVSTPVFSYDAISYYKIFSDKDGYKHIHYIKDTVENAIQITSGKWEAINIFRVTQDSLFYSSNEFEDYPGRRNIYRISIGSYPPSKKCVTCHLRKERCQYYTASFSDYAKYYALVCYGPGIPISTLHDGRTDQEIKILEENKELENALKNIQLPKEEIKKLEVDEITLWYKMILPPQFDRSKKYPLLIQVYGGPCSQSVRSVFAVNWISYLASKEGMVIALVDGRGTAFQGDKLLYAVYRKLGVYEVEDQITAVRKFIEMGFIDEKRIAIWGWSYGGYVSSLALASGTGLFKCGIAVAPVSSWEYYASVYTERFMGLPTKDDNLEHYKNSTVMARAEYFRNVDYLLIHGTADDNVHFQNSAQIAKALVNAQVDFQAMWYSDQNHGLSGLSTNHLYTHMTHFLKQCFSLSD

B1: huF19-LG-NGR: mutant of huF19-LG with G56R (Kabat) in heavy chain CDR2; VH SEQ ID NO: 21, VL SEQ ID NO: 15 (antibody, V domains shown)
VH: QVQLVQSGAEVKKPGASVKVSCKASGYTFTEYTIHWVRQATGQGLEWIGGINPNNRIPNYNQKFKGRATMTVGTSISTAYMELSSLRSEDTAVYFCARRRIAYGYDEGHAMDYWGQGTLVTVSS
VL: DIQMTQSPSSLSASVGDRVTITCKSSQSLLYSRNQKNYLAWFQQKPGKAPKLLIFWASTRESGVPSRFTGSGFGTDFTLTISSLQPEDFATYYCQQYFSYPLTFGQGTKLEIK
binding to human FAP protein expressed on engineered 293T cells (FACS) [1]: can bind to human FAP protein and cynomolgus FAP protein expressed on engineered 293T cells, with the binding capacities comparable to those of the antibody before mutation
binding to cynomolgus FAP protein expressed on engineered 293T cells (FACS) [2]: can bind to human FAP protein and cynomolgus FAP protein expressed on engineered 293T cells, with the binding capacities comparable to those of the antibody before mutation
change in purity by SEC during storage ([3]; 0 to 4 weeks): did not exhibit significant changes in purity
Purity by SEC, % ([3]; 0 weeks): 99.2%
Purity by SEC, % ([3]; 2 weeks): 99.1%
Purity by SEC, % ([3]; 4 weeks): 99.1%
binding to murine protein (murine FAP): cannot bind to murine protein
